Experimental data reported in the supplement of paper PMC10065799, “High-throughput profiling of sequence recognition by tyrosine kinases and SH2 domains using bacterial peptide display” (eLife, 2023).

Key:
c-Src = test: phosphorylation enrichment, bacterial display (enrichment ratio); higher = better substrate or ligand; peptides without Tyr show the background
c-Abl (mouse) = test: as above
Hck = Hck (UniProt P08631); test: as above
MERTK = MERTK (UniProt Q12866); test: as above
AncSZ = test: as above
EPHB2 = EPHB2 (UniProt P29323); test: as above
Fyn = Fyn (UniProt P06241); test: as above
Fes = Fes (UniProt P07332); test: as above
Jak2 = Jak2 (UniProt O60674); test: as above
FGFR1 = FGFR1 (UniProt P11362); test: as above
FGFR3 = FGFR3 (UniProt P22607); test: as above
EPHB1 = EPHB1 (UniProt P54762); test: as above
Fer (mouse) = test: as above
SHP2-C SH2 = test: SH2 binding enrichment of the phosphorylated peptide, bacterial display (enrichment ratio); higher = better substrate or ligand; peptides without Tyr show the background
c-Src SH2 = test: as above
Grb2 SH2 = Grb2 SH2 (UniProt P62993); test: as above
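For SH2 binding enrichment of the phosphorylated peptide, bacterial display in this document: peptide library displayed on the E. coli surface as eCPX fusions, selected cells deep-sequenced, score is each peptide's frequency after selection divided by its frequency in the input.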
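For phosphorylation enrichment, bacterial display in this document: 11-residue human phosphosite peptides and single-mutation variants displayed on the E. coli surface, counted by deep sequencing, each peptide's frequency after selection divided by its frequency in the unselected input library; frequency after pTyr selection over input frequency; kinase dosed for 20-30% of maximal phosphorylation in three min.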

Chain of Fyn (P06241 whole entry, looked up): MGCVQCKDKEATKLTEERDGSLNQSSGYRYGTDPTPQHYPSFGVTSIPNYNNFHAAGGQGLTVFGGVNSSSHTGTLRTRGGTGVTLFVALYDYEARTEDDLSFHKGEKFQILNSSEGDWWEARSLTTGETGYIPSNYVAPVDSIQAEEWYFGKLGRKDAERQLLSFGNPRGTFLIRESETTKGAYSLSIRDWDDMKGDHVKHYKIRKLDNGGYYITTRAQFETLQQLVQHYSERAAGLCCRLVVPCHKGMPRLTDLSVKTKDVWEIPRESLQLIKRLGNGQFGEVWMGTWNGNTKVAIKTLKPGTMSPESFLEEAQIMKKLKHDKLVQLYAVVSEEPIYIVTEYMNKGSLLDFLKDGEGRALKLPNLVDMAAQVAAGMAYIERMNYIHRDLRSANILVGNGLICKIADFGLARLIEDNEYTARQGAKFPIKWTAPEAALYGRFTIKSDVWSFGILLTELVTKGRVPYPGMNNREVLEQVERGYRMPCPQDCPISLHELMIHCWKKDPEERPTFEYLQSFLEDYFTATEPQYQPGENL
Chain of MERTK (Q12866 whole entry, looked up): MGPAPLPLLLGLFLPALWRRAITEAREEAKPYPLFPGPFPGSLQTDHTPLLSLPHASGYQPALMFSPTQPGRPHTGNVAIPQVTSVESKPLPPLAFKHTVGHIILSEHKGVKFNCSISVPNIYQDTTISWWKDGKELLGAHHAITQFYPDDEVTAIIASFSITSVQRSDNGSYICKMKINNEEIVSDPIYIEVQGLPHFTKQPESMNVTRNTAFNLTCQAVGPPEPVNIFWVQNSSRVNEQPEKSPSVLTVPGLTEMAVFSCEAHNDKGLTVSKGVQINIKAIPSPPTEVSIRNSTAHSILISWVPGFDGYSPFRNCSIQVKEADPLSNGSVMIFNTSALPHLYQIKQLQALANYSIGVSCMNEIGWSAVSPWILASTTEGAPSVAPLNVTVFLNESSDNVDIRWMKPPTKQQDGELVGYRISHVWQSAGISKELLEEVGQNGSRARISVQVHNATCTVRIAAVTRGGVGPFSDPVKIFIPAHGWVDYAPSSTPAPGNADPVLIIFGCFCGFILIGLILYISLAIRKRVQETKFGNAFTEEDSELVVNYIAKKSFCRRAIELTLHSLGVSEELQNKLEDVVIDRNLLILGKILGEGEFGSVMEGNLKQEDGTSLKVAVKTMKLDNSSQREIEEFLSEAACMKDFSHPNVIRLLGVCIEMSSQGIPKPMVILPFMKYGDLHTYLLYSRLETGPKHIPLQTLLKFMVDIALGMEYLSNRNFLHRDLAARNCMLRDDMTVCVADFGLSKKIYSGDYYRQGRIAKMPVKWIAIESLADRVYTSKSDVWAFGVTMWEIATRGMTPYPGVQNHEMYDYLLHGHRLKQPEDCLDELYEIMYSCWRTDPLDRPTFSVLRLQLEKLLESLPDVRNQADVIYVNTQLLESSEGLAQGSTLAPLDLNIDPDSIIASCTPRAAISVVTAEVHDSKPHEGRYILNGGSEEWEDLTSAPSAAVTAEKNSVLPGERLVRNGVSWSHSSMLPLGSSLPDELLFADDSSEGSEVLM
Chain of FGFR1 (P11362 whole entry, looked up): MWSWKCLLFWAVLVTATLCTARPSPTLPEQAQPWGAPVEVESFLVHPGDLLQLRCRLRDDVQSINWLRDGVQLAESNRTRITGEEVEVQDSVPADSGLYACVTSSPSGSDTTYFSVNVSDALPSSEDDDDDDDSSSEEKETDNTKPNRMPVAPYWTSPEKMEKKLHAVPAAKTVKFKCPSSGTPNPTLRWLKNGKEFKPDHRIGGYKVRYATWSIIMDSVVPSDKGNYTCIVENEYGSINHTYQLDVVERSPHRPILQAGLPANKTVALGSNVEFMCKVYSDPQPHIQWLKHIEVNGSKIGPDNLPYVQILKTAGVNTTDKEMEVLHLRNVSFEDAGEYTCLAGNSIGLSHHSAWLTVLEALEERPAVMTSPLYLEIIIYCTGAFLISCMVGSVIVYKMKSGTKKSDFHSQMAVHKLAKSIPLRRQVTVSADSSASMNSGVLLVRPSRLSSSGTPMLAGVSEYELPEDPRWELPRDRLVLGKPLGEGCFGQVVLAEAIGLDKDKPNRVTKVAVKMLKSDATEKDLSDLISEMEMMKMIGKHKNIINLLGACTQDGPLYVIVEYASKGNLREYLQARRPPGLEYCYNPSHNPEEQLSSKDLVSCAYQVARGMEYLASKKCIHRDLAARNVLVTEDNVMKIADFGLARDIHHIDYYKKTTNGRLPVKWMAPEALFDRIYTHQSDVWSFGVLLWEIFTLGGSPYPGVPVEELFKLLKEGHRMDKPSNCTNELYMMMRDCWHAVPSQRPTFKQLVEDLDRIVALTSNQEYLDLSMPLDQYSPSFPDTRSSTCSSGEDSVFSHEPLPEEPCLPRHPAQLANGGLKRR
Chain of EPHB1 (P54762 whole entry, looked up): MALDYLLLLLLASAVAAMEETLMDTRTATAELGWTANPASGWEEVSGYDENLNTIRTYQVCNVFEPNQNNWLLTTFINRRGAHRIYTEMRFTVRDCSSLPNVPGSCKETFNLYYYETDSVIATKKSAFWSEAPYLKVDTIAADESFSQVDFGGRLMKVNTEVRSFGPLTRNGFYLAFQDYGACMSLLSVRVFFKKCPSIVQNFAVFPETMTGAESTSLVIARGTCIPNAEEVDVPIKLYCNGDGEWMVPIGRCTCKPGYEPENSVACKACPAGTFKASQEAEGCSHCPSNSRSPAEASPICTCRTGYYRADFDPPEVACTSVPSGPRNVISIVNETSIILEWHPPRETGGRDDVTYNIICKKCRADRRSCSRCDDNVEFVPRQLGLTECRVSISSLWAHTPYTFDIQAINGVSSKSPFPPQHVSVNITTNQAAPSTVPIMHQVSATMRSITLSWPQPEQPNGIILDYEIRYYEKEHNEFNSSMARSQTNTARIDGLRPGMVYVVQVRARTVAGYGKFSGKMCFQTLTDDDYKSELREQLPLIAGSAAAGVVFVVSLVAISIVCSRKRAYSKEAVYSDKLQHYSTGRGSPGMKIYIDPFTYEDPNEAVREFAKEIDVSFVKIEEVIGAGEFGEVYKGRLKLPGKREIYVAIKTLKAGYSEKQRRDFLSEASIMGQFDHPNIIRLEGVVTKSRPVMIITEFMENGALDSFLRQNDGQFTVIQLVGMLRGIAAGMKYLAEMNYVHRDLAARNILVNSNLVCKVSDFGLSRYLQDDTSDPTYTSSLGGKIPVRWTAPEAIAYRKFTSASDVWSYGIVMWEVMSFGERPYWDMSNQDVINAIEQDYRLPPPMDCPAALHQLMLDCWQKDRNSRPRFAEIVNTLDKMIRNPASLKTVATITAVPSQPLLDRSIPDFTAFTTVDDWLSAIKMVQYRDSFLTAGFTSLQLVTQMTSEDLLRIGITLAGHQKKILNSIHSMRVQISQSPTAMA
Chain of Jak2 (O60674 whole entry, looked up): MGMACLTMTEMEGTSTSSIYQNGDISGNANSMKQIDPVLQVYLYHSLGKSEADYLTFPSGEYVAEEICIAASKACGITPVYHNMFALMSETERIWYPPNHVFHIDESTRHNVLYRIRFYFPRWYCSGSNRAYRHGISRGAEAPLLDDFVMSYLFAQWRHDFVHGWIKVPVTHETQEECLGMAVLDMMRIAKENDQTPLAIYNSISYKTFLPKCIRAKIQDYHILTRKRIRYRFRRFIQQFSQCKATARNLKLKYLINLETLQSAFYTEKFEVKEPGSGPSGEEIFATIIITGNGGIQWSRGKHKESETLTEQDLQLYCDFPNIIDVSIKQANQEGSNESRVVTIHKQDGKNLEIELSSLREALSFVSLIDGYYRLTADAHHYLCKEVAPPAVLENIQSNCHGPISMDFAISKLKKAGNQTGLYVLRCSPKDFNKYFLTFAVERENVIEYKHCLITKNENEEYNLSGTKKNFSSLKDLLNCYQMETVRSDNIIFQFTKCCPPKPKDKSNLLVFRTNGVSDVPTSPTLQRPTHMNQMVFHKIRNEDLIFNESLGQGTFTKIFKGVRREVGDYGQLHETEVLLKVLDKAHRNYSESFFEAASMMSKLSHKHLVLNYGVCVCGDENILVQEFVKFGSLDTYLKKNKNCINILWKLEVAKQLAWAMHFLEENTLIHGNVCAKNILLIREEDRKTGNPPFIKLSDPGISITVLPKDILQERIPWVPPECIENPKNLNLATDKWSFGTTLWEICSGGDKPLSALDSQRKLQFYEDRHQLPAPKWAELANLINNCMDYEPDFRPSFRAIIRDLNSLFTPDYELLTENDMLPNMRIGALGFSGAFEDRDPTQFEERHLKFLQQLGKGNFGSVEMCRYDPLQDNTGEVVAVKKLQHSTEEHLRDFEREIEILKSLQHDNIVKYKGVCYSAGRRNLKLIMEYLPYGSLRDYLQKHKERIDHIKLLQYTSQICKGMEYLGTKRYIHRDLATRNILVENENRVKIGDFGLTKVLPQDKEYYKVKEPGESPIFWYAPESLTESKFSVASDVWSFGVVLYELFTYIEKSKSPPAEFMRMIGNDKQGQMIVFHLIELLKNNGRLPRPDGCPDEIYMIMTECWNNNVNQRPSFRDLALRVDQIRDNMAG
Chain of Hck (P08631 whole entry, looked up): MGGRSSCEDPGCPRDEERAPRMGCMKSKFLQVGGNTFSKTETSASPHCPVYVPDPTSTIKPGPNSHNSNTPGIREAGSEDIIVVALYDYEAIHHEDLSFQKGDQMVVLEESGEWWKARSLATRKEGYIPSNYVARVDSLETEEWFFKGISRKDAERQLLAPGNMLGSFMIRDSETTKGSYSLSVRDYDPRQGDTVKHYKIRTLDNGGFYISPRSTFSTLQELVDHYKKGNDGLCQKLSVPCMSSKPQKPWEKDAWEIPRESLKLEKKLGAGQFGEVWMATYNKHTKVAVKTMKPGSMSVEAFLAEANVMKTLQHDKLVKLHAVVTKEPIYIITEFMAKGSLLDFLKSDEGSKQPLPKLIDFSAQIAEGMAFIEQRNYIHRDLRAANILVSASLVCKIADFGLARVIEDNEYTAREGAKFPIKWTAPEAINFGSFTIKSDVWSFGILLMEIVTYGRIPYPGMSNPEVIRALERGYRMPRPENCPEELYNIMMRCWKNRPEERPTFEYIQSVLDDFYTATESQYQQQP

Row | Sequence | SH2 binding enrichment (SHP2-C SH2) | SH2 binding enrichment (c-Src SH2) | SH2 binding enrichment (Grb2 SH2) | phosphorylation enrichment (c-Src) | phosphorylation enrichment (c-Abl (mouse)) | phosphorylation enrichment (Hck) | phosphorylation enrichment (MERTK) | phosphorylation enrichment (AncSZ) | phosphorylation enrichment (EPHB2) | phosphorylation enrichment (Fyn) | phosphorylation enrichment (Fes) | phosphorylation enrichment (Jak2) | phosphorylation enrichment (FGFR1) | phosphorylation enrichment (FGFR3) | phosphorylation enrichment (EPHB1) | phosphorylation enrichment (Fer (mouse))
1 | ADKSAYLMGPN [MYH7_Y386_L390P] | 0.729 | 0.482 | 0.766 | 0.631 | 0.441 | 0.508 | 0.408 | 0.636 | 0.391 | 0.544 | 0.637 | 0.7 | 0.473 | 0.545 | 0.386 | 0.371
2 | ADLAKYICENR [ALB_Y287_Q292R] | 0.79 | 0.424 | 0.817 | 0.467 | 1.36 | 0.447 | 0.45 | 0.84 | 0.406 | 0.427 | 0.946 | 0.928 | 0.469 | 0.691 | 0.537 | 0.498
3 | AEARMYGVLPW [PLP1_Y207_D203E] | 0.871 | 0.46 | 0.769 | 4.81 | 0.989 | 7.47 | 1.54 | 0.767 | 1.05 | 7.15 | 0.811 | 0.65 | 0.502 | 0.559 | 0.692 | 0.477
4 | AEMKRYAESSS [RAI14_Y869] | 0.903 | 0.448 | 0.875 | 0.382 | 0.483 | 0.403 | 0.336 | 0.607 | 0.394 | 0.471 | 0.778 | 0.582 | 0.467 | 0.441 | 0.45 | 0.372
5 | AEMTGYVVTRW [MAPK13_Y182] | 0.586 | 0.47 | 0.845 | 0.486 | 0.895 | 0.467 | 0.372 | 1.17 | 0.586 | 0.468 | 1.3 | 1.34 | 0.526 | 0.834 | 0.636 | 0.499
6 | AFGEVYEGQES [ALK_Y1131_V1135E] | 0.677 | 0.557 | 0.842 | 0.75 | 0.842 | 0.629 | 0.438 | 1.32 | 0.622 | 0.598 | 1.05 | 1.14 | 0.485 | 0.645 | 0.526 | 0.478

Further lines, with some results ahead:

Row | SH2 binding enrichment (SHP2-C SH2) | SH2 binding enrichment (c-Src SH2) | SH2 binding enrichment (Grb2 SH2) | Sequence | phosphorylation enrichment (c-Src) | phosphorylation enrichment (c-Abl (mouse)) | phosphorylation enrichment (Hck) | phosphorylation enrichment (MERTK) | phosphorylation enrichment (AncSZ) | phosphorylation enrichment (EPHB2) | phosphorylation enrichment (Fyn) | phosphorylation enrichment (Fes) | phosphorylation enrichment (Jak2) | phosphorylation enrichment (FGFR1) | phosphorylation enrichment (FGFR3) | phosphorylation enrichment (EPHB1) | phosphorylation enrichment (Fer (mouse))
7 | 0.539 | 0.4 | 0.717 | ADLTEYLSTHF [UQCRC1_Y219_YF] | 0.561 | 0.958 | 0.604 | 0.571 | 1.43 | 0.672 | 0.577 | 1.35 | 1.2 | 0.699 | 0.923 | 0.681 | 0.493
8 | 0.766 | 0.508 | 0.906 | AEKPKYQINNI [TJP1_Y1602] | 0.363 | 0.548 | 0.366 | 0.349 | 0.541 | 0.802 | 0.341 | 0.682 | 0.704 | 0.383 | 0.427 | 0.366 | 0.368
9 | 0.574 | 0.485 | 0.82 | AEYGLYAAMVR [VSX2_Y222_G223A] | 4.7 | 3.28 | 7.14 | 6.46 | 1.65 | 9.84 | 6.68 | 1.4 | 1.16 | 0.639 | 0.895 | 8.53 | 5.05
